According to publication PMC4381397, “The recently identified modifier of murine metastable epialleles, Rearranged L-Myc Fusion, is involved in maintaining epigenetic marks at CpG island shores and enhancers”:

B1: PP4 pentaprobe (ssDNA)
DNA: TATCCTACCCATTGGGCTCATCTGATCCATCCGGTCCCGTCCACTCGGCTATGTTATGCTGTATTGCAGTCGTGTCGCGTCGAGCTGCCCTAATCCCACC
B2: PP2 pentaprobe (ssDNA)
DNA: TATCTTACTTTAGTTTCATTTAATTGTGTTGTACTCTCCTCTGCGTTCACTTAGCTTAACTTGGTTTGGCTTGATTTGACTTCAGTTGCGCTCTATTCTA

Molecular target: Gata1CF (UniProt P17679 249-311)
Sequence (P17679 249-311): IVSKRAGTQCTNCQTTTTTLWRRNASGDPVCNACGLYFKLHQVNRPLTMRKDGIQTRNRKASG
Test: EMSA; 0.5 and 5 uM protein, 5 nM probe, 10 uM ZnSO4; 10 mM HEPES pH 7.9, 30 mM NaCl, 1 mM MgCl2, 20 uM EDTA, 10 mM DTT, 10 uM ZnSO4, 67 ug/mL acetylated BSA, 4% Ficoll; on ice 30 min
Details: protein: recombinant; label: 5' FAM

Binder | binding result
B1 | binds
B2 | binds
